{"source": "paper PMC7617963", "about": "(Current biology : CB, 2024)", "proteins": {"B1": {"name": "CENP-E_(2452-2598) (domain or fragment, human, UniProt Q02224-1 2452-2598, looked up)", "chain": "PYKEEIEDLKMKLVKIDLEKMKNAKEFEKEISATKATVEYQKEVIRLLRENLRRSQQAQDTSVISEHTDPQPSNKPLTCGGGSGIVQNTKALILKSEHIRLEKEISKLKQQNEQLIKQKNELLSNNQHLSNEVKTWKERTLKREAHK", "notes": "CENP-E (centromere-associated protein E), residues 2452-2598; cell constructs were generated from CENP-E transcript variant 1 (NM_001813.2); cloned into pET3aTr for expression; The purification says that the His tag was cleaved with 3C protease, yet the crystallisation and cross-linking methods call the protein His6-CENP-E_(2452-2598); also called His6-CENP-E_(2452-2598); minimal corona-targeting …"}}, "target": "the molecule itself", "experiment": "cross-linking; BS3 cross-linker mixed 1:1 (w/w) with protein at 1 mg/ml, 30 minutes at room temperature, quenched with 200 mM ammonium bicarbonate, resolved by SDS-PAGE", "data": [{"protein": "B1", "values": [{"measurement": "stoichiometry N", "result": 2}]}]}
